Measured values from US20050202450A1 (US Dept. of Health and Human Services, published 2005).

B5: Gal4-HIF1α(498-603) (other)
chain: MKLLSSIEQACDICRLKKLKCSKEKPKCAKCLKNNWECRYSPKTKRSPLTRAHLTEVESRLERLEQLFLLIFPREDLDMILKMDSLQDIKALLTGLFVQDNVNKDAVTDRLASVETDMPLTLRQHRISATSSSEESSNKGQRQLTVSTPSPSDGSTRQSSPEPNSPSEYCFYVDSDMVNEFKLELVEKLFAEDTEAKNPFSTQDTDLDLEMLAPYIPMDDDFQLRSFDQLSPLESSSASPESASPQSTVTVFQ
notes: also called Gal4-C-ODD; C-ODD

Key:
[1] = target: T1, VHL protein (endogenous, in Hep3B / 293 cell extracts) (UniProt P40337 1-213, limits assumed); assay: EMSA super-shift with anti-VHL, transfected 293 cells
T1 construct: also called von Hippel-Lindau tumor suppressor protein

[2] = target: T2, VHL protein, HA-tagged, in vitro translated from p(HA)VHL (UniProt P40337 1-213); assay: in vitro co-immunoprecipitation with anti-VHL, 35S-labeled Gal4 fusion
T2 construct: not shown: HA tag

[3] = target: T1, VHL protein (endogenous, in Hep3B / 293 …); assay: cell-based or functional assay
V5-tagged PHD2/HPH2 = target: T3, V5-tagged PHD2/HPH2 (human, UniProt Q9GZT9 1-426, limits assumed); assay: co-immunoprecipitation with anti-Gal4, Western blot with anti-V5, 293 cells with Cbz-LLL
T3 construct: V5/His-tagged expression plasmid; also called HIF prolyl-4-hydroxylase; not shown: V5/His tag

V5-tagged PHD1/HPH3 = target: T4, V5-tagged PHD1/HPH3 (human, UniProt Q96KS0 1-407, limits assumed); assay: as above
T4 construct: V5/His-tagged expression plasmid; not shown: V5/His tag

Gal4-HIF1α(498-603) = target: B5; assay: as above
Procedure: One microgram of each plasmid was used. After treatment with Cbz-LLL for 4 h, cells were lyzed in a buffer (35) containing 25 mM Tris (pH 7.5), 300 mM NaCl, and 1% Triton-X. The lysate was immunoprecipitated with anti-Gal4 polyclonal antibody (Santa Cruz), followed by immunoblotting with anti-V5 antibody (Invitrogen) and monoclonal anti-Gal4 antibody (Santa Cruz).
To that end, we performed co-immunoprecipitations of C-ODD with the HIF prolyl hydroxylases.

T1 sequence (P40337 whole entry): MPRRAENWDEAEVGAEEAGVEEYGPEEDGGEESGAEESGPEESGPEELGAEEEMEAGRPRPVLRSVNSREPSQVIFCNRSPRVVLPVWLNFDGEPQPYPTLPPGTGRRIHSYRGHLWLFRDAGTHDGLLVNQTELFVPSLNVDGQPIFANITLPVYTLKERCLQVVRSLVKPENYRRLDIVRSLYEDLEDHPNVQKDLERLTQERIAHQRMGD
T2 sequence (P40337 whole entry, the tested form may be a part): as the sequence (P40337 whole entry) above
T3 sequence (Q9GZT9 whole entry, the tested form may be a part): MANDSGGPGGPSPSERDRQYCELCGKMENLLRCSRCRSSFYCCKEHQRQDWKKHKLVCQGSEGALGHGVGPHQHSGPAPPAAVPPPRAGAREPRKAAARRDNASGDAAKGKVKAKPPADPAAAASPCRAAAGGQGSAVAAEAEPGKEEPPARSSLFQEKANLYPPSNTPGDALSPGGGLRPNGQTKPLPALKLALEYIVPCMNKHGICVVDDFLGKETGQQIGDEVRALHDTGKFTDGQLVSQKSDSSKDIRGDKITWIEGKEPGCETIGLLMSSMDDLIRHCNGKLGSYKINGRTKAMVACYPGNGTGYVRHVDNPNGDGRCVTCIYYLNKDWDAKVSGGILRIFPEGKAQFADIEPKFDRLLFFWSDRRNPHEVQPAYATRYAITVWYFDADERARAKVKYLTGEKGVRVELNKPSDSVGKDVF
T4 sequence (Q96KS0 whole entry): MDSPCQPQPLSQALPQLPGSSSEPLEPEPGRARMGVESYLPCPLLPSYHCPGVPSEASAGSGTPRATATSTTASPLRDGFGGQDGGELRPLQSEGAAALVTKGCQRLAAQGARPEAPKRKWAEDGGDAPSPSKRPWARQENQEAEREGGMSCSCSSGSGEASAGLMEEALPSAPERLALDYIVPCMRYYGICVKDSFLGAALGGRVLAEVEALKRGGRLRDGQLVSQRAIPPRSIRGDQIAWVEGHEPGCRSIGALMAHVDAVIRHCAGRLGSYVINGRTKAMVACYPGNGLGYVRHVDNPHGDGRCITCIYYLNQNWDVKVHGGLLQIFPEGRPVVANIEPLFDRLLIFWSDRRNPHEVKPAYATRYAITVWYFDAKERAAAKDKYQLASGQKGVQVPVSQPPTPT

B1: Gal4-HIF1α(530-573) (other)
chain: MKLLSSIEQACDICRLKKLKCSKEKPKCAKCLKNNWECRYSPKTKRSPLTRAHLTEVESRLERLEQLFLLIFPREDLDMILKMDSLQDIKALLTGLFVQDNVNKDAVTDRLASVETDMPLTLRQHRISATSSSEESSNKGQRQLTVSEFKLELVEKLFAEDTEAKNPFSTQDTDLDLEMLAPYIPMDDDFQ
- binding result [1]: no binding
- binding result [2]: no binding

B2: Gal4-HIF1α(498-603)L574S (other, not shown: large carriers; small tags and cut ends)
chain: TPSPSDGSTRQSSPEPNSPSEYCFYVDSDMVNEFKLELVEKLFAEDTEAKNPFSTQDTDLDLEMLAPYIPMDDDFQSRSFDQLSPLESSSASPESASPQSTVTVFQ
notes: also called Gal4-C-ODD L574S mutant
- Gal4 luciferase reporter activity (Hep3B cells) under oxygenated conditions, in comparison to the wild-type [3]: 4.3 fold increase
- expression level (Western blot, 293 cells), in comparison to Gal4-HIF1α(498-603) [3]: 7 fold increase
- binding result [2]: no binding
- binding result (V5-tagged PHD2/HPH2): no binding

B3: Gal4-HIF1α(401-603) with Pro-564 mutated to alanine (other, not shown: large carriers; small tags and cut ends)
chain: APAAGDTIISLDFGSNDTETDDQQLEEVPLYNDVMLPSPNEKLQNINLAMSPLPTAETPKPLRSSADPALNQEVALKLEPNPESLELSFTMPQIQDQTPSPSDGSTRQSSPEPNSPSEYCFYVDSDMVNEFKLELVEKLFAEDTEAKNPFSTQDTDLDLEMLAAYIPMDDDFQLRSFDQLSPLESSSASPESASPQSTVTVFQ
- binding result [2]: no binding

B4: Gal4-HIF1α(498-574)L574S (other, not shown: large carriers; small tags and cut ends)
chain: TPSPSDGSTRQSSPEPNSPSEYCFYVDSDMVNEFKLELVEKLFAEDTEAKNPFSTQDTDLDLEMLAPYIPMDDDFQS
- binding result [2]: no binding

Binder: B5
- binding result (V5-tagged PHD1/HPH3): no binding

B6: Gal4-HIF1α(574-603) (other)
chain: MKLLSSIEQACDICRLKKLKCSKEKPKCAKCLKNNWECRYSPKTKRSPLTRAHLTEVESRLERLEQLFLLIFPREDLDMILKMDSLQDIKALLTGLFVQDNVNKDAVTDRLASVETDMPLTLRQHRISATSSSEESSNKGQRQLTVSLRSFDQLSPLESSSASPESASPQSTVTVFQ
- binding result [2]: no binding

B7: Gal4-HIF1α(498-574) (other)
chain: MKLLSSIEQACDICRLKKLKCSKEKPKCAKCLKNNWECRYSPKTKRSPLTRAHLTEVESRLERLEQLFLLIFPREDLDMILKMDSLQDIKALLTGLFVQDNVNKDAVTDRLASVETDMPLTLRQHRISATSSSEESSNKGQRQLTVSTPSPSDGSTRQSSPEPNSPSEYCFYVDSDMVNEFKLELVEKLFAEDTEAKNPFSTQDTDLDLEMLAPYIPMDDDFQL
- Gal4 luciferase reporter activity (Hep3B cells), in comparison to Gal4-HIF1α(498-573) [3]: 6.5 fold decrease
- protein levels under normoxia (Western blot, 293 cells), in comparison to Gal4-HIF1α(498-573) [3]: ~3 fold decrease

B8: V5-tagged PHD3/HPH1 (enzyme, human, UniProt Q9H6Z9 1-239, looked up)
chain: MPLGHIMRLDLEKIALEYIVPCLHEVGFCYLDNFLGEVVGDCVLERVKQLHCTGALRDGQLAGPRAGVSKRHLRGDQITWIGGNEEGCEAISFLLSLIDRLVLYCGSRLGKYYVKERSKAMVACYPGNGTGYVRHVDNPNGDGRCITCIYYLNKNWDAKLHGGILRIFPEGKSFIADVEPIFDRLLFFWSDRRNPHEVQPSYATRYAMTVWYFDAEERAEAKKKFRNLTRKTESALTED
notes: V5/His-tagged expression plasmid; not shown: V5/His tag
- binding result (Gal4-HIF1α(498-603)): no binding
